Measurements published in PMC3046295 (Journal of autoimmunity, 2011).
Where two headings read alike, the source gives them in different places. One block for each molecule: values may come before it. Residues, ends and D or L forms follow the SMILES beside them. No end group written: not given here.

Columns and labels:
[1] = target: T1, HLA-DR0401 (Homo sapiens, UniProt P01903+P01911, A100K/A169T/F76Y/I96L/K127E/L162R/M171V/N62H/P40V/Q125Y/R42H/S133A/S149N/S66Y/V115G/V209L/W38E); assay: Kinetic analysis; format: binding; settings: pH 5.4, read-out: Kd 0401 (dissociation rate constant)
[2] = target: T2, HLA-DR0403 (Homo sapiens, UniProt P01903+P01911, A100R/A103E/A169T/F76Y/I96L/K127E/L162R/M171V/N62H/P40V/Q125Y/R42H/S133A/S149N/S66Y/V209L/W38E); assay: Kinetic analysis; format: binding; settings: pH 5.4, read-out: Kd 0403 (dissociation rate constant)
[3] = target: HLA-DR0405 (Homo sapiens, UniProt P01903+P01911, A100R/A169T/D86S/F76Y/I96L/K127E/L162R/M171V/N62H/P40V/Q125Y/R42H/S133A/S149N/S66Y/V115G/V209L/W38E); assay: Indirect; format: binding; settings: read-out: IC50 (uM) 0405; pH 5.4
[4] = target: T2, HLA-DR0403; assay: biochemical; format: binding
[5] = target: T1, HLA-DR0401; assay: biochemical; format: binding
[6] = target: HLA-DR0403 (DRA1*0101/DRB1*0403), soluble recombinant (human); assay: ELISA
[7] = target: DR0403 (Homo sapiens, UniProt P01903+P01911, A100R/A103E/A169T/F76Y/I96L/K127E/L162R/M171V/N62H/P40V/Q125Y/R42H/S133A/S149N/S66Y/V209L/W38E); assay: 16-hour direct binding assay of biotinylated reference peptide, DR0403
[8] = target: HLA-DR0401 (DRA1*0101/DRB1*0401), soluble recombinant (human); assay: ELISA
[9] = target: HLA-DR0403 (DRA1*0101/DRB1*0403), soluble recombinant (human); assay: ELISA; remark: listed apart in the source

Molecule: CC(C)C[C@H](NC(=O)[C@H](CC(C)C)NC(=O)[C@@H]1CCCN1C(=O)[C@H](CC(=O)O)NC(=O)[C@H](Cc1ccccc1)NC(=O)[C@H](C)NC(=O)CNC(=O)[C@H](Cc1ccc(O)cc1)NC(=O)[C@@H](NC(=O)[C@@H](NC(=O)[C@@H](NC(=O)CNC(=O)[C@H](C)NC(=O)[C@@H](NC(=O)[C@H](C)NC(=O)[C@H](CO)NC(=O)[C@@H](NC(=O)[C@H](CC(C)C)NC(=O)[C@H](Cc1ccccc1)NC(=O)[C@@H]1CCCN1)C(C)C)[C@@H](C)O)[C@@H](C)O)[C@@H](C)O)C(C)C)C(=O)O [GAD65p42] (H-PFLVSATAGTTVYGAFDPLL-OH)
- koff [1]: 5.42e-05 s⁻¹
- koff [2]: 2.02e-05 s⁻¹
- IC50 [3]: > 10 µM
- IC50 [4]: 1270 nM
- IC50 [5]: 2070 nM

Molecule: biotinylated influenza hemagglutinin derived peptide HA306
- EC50 [6]: > 15000 nM

Molecule: NFIRMVISNPAAT [557I]
- ED50 to bind 0.05 µM DR0403 [7]: 10 nM

Molecule: CC[C@H](C)[C@H](NC(=O)[C@@H](NC(=O)[C@@H]1CCCN1C(=O)[C@H](C)NC(=O)[C@@H](N)C(C)C)C(C)C)C(=O)N[C@@H](CCCCN)C(=O)N[C@@H](C)C(=O)N[C@@H](CCCNC(=N)N)C(=O)N[C@@H](CCSC)C(=O)N[C@@H](CCSC)C(=O)N[C@@H](CCC(=O)O)C(=O)N[C@@H](Cc1ccc(O)cc1)C(=O)NCC(=O)N[C@H](C(=O)N[C@H](C(=O)N[C@@H](CCSC)C(=O)N[C@H](C(=O)N[C@@H](CO)C(=O)N[C@@H](Cc1ccc(O)cc1)C(=O)N[C@@H](CCC(N)=O)C(=O)O)C(C)C)[C@@H](C)O)[C@@H](C)O [GAD65p67] (H-VAPVIKARMMEYGTTMVSYQ-OH)
- koff [1]: 0.000149 s⁻¹
- koff [2]: 7.67e-05 s⁻¹
- IC50 [3]: > 10 µM
- IC50 [4]: 1610 nM
- IC50 [5]: 640 nM

- IC50 [8]: 8750 nM
B1: preproinsulin p10 (peptide)
peptide: GAGSLQPLALEGSLQKRGIV

- IC50 [8]: 220 nM
- IC50 [9]: 1890 nM
B2: preproinsulin p12 (peptide)
peptide: RGIVEQCCTSICSLYQLENY

- IC50 [9]: 3550 nM
B3: GAD65p10 (peptide)
peptide: CACDQKPCSCSKVDVNYAFL

- IC50 [8]: 10000 nM
B4: GAD65p55 (peptide)
peptide: YDLSYDTGDKALQCGRHVDV

- IC50 [9]: 10000 nM
B5: GAD65p22 (peptide)
peptide: YAIKTGHPRYFNQLSTGLDM

- IC50 [9]: 470 nM
B6: preproinsulin p13 (peptide)
peptide: TSICSLYQLENYCN

- koff [8]: 5.42e-05 s⁻¹
- t1/2 [8]: 3.6 min
- koff [9]: 2.02e-05 s⁻¹
- t1/2 [9]: 9.6 min
B7: biotinylated GAD65p42 (peptide)
peptide: PFLVSATAGTTVYGAFDPLL
modifications: not fully specified

- EC50 [9]: 10 nM
B8: biotinylated GAD65-557I (peptide)
peptide: NFIRMVISNPAAT
modifications: not fully specified

- IC50 [9]: 10000 nM
B9: GAD65p32 (peptide)
peptide: YAMMIARFKMFPEVKEKGMA

- IC50 [9]: 1000 nM
B10: GAD65p64 (peptide)
peptide: CFWYIPPSLRTLEDNEERMS

- koff [8]: 0.000149 s⁻¹
- t1/2 [8]: 77.4 min
- koff [9]: 7.67e-05 s⁻¹
- t1/2 [9]: 151 min
B11: biotinylated GAD65p67 (peptide)
peptide: VAPVIKARMMEYGTTMVSYQ
modifications: not fully specified
